Assay results from US20070274915.

System: AU-tagged PLC-γ1
Sequence (P19174 2-1290): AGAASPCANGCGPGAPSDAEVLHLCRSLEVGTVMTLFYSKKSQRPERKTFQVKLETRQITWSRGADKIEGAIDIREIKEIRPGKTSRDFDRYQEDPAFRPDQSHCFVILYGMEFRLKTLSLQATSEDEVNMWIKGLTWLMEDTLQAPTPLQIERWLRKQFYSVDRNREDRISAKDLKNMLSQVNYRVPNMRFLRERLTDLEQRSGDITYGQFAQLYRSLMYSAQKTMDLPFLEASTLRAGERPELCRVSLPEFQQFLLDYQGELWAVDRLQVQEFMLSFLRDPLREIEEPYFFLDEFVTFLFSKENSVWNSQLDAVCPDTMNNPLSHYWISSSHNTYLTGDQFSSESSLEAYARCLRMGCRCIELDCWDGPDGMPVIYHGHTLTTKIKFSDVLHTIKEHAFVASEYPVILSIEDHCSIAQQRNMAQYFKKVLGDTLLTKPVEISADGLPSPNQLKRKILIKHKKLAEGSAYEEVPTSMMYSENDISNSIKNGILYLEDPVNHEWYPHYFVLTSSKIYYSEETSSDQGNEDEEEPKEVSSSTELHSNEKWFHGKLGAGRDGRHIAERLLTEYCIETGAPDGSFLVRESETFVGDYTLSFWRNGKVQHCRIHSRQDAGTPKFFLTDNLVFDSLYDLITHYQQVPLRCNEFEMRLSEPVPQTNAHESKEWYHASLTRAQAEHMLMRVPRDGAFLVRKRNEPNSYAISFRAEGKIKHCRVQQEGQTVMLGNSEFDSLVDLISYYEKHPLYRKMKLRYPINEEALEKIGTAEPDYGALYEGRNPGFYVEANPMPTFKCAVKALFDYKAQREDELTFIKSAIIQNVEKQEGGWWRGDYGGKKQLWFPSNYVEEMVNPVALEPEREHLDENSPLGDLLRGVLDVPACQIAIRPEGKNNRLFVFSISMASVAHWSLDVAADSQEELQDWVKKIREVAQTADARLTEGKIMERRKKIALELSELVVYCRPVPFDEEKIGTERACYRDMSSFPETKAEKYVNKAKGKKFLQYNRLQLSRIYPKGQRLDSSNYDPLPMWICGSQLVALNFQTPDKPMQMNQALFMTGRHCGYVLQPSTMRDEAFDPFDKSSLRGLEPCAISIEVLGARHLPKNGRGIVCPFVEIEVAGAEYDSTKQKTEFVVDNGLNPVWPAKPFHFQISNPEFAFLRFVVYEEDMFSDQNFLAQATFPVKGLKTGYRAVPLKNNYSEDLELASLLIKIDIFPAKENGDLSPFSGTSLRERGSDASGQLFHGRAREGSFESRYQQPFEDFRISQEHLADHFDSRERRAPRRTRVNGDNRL

Chain of myc-tagged Itch (chain, as listed by the source): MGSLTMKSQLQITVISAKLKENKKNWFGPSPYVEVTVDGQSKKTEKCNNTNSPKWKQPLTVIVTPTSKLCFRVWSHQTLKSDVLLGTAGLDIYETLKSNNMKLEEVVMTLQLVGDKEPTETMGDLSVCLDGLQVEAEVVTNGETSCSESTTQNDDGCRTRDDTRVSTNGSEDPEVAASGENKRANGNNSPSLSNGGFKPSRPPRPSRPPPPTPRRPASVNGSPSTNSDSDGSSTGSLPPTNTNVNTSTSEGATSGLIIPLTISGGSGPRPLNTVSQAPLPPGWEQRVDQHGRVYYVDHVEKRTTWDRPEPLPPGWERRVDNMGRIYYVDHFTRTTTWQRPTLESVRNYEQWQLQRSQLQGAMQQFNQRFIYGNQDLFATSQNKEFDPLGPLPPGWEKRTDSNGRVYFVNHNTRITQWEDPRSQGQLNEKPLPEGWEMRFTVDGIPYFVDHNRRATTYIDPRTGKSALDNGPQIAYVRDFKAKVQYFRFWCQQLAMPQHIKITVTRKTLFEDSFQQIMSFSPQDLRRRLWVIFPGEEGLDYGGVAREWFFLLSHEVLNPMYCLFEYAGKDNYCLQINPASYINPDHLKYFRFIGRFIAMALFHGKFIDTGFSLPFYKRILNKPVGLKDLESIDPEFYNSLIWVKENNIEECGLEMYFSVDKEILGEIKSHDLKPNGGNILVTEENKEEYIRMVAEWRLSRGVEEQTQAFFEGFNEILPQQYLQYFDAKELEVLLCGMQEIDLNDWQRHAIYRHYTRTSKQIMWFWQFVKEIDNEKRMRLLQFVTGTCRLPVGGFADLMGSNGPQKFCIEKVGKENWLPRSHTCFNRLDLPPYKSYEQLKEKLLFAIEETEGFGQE

myc-tagged Itch was tested, and the “ionomycin-dependent degradation of PLC-γ1 (HEK 293 transfection, immunoblot)” value was “Itch and Nedd4 both facilitated the ionomycin-dependent degradation of PLC-γ1”.
